Assay results: paper PMC4837482, “The complex binding mode of the peptide hormone H2 relaxin to its receptor RXFP1” (Nature Communications, 2016)
Positions count from the first letter of the chain named.

How the values were obtained:
Experiment in all cases: cAMP activity assay (pCRE β-galactosidase reporter), transfected HEK293T cells
Format in all cases: cell-based
RXFP1 K52A = target: T1, RXFP1 K52A (Homo sapiens, UniProt Q9HBX9, K74A); settings: construct K52A, ±s.e.m.
T1 construct: cells expressing full-length RXFP1 and mutants; expressed in transfected cells; host or cells: HEK293T
T1 sequence (Q9HBX9 23-757 K74A limits assumed): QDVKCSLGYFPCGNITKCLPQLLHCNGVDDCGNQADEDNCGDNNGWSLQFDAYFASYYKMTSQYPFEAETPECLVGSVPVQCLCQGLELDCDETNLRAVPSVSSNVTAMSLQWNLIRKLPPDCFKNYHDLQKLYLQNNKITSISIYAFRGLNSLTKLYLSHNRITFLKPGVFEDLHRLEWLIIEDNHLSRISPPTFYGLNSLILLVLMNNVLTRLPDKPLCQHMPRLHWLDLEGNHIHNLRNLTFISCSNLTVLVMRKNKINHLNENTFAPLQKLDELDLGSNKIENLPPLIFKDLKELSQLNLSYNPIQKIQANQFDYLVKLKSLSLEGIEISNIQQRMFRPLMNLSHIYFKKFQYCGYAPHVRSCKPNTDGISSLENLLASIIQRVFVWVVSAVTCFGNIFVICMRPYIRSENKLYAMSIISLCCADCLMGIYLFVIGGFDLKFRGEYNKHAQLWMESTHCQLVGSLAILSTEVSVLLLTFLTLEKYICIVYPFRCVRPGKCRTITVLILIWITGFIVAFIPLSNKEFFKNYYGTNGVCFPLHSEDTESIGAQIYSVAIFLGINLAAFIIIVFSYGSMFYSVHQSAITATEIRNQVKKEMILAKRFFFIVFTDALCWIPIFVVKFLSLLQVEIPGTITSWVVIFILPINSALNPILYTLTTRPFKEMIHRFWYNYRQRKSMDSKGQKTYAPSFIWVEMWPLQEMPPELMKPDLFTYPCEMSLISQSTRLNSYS
Description: (§1) Media was aspirated and plates stored frozen at −80 °C overnight. […] H2 relaxin dilutions were prepared in minimal media containing 1% DMSO. Positive and negative control stimulations were achieved by incubation with 5 μM Forskolin and minimal media/1% DMSO, respectively. Plates were developed by 10 min of incubation in 25 μl of lysis buffer 1 (100 mM Na2HPO4, pH 8.0, 0.2 mM MgSO4 0.01 mM MnCl2); a further 10 min of incubation in 100 μl of buffer 2 (100 mM Na2HPO4, pH 8.0, 2 mM MgSO4, 0.1 mM MnCl2, 0.5% Triton X-100, 40 mM β-mercaptoethanol); then to each well 25 μl of the β-galactosidase substrate, chlorophenol red-β-D-galactopyranoside (Roche) was added. All incubation steps were conducted with orbital shaking. Color-change was monitored and readings were taken on a Benchmark Plus Microplate Reader (Bio-Rad) at 570 nm. A minimum of three separate experiments were performed, each of them in triplicate, and data were pooled and presented as percentages of the maximum response induced by 5 μM Forskolin±s.e.m.

RXFP1 A55S = target: T2, RXFP1 A55S (Homo sapiens, UniProt Q9HBX9, A77S); settings: construct A55S, ±s.e.m.
T2 construct: cells expressing full-length RXFP1 and mutants; expressed in transfected cells; host or cells: HEK293T
T2 sequence (Q9HBX9 23-757 A77S limits assumed): T1 sequence (Q9HBX9 23-757 K74A limits assumed) with A52K, A55S
Description: as §1

RXFP1 G45W46-AA = target: T3, RXFP1 G45W46-AA (Homo sapiens, UniProt Q9HBX9, G67A/W68A)
T3 construct: transiently transfected human embryonic kidney (HEK) 293T cells expressing full-length RXFP1 and mutants; expressed in transfected cells; host or cells: HEK293T
T3 sequence (Q9HBX9 23-757 G67A/W68A limits assumed): T1 sequence (Q9HBX9 23-757 K74A limits assumed) with G45A, W46A, A52K
Description: as §1

[1] = percentage of maximum response to 5 μM Forskolin

In the case of “H2 relaxin: two-chain 6-kDa peptide hormone structurally related to insulin; recombinant human gene-2 H2 relaxin provided by Corthera”, the “H2 relaxin pEC50” value (RXFP1 K52A; cAMP reporter) is reported as 11.06±0.11, the “H2 relaxin Emax” value (RXFP1 K52A; [1]) is reported as 154.63±33.73 (5) % and the “H2 relaxin pEC50” value (RXFP1 A55S; cAMP reporter) is reported as 11.39±0.13 (5). The “H2 relaxin Emax” value (RXFP1 A55S; [1]) was 154.43±39.77 (5) %, the “H2 relaxin-stimulated cAMP activity” value (RXFP1 G45W46-AA; G45A/W46A RXFP1) was “virtually unable to signal” and the “H2 relaxin pEC50” value (RXFP1 G45W46-AA; construct G45W46-AA, cAMP reporter) was <6 (3).
